Results on one protein are retold here after publication PMC7168936.

Substrate in this data set: N[C@@H](COP(=O)(O)O)C(=O)O
Description: purified protein, by the assay type. The note with it: other: substrates of PSAT1, optimized conditions; pH 8.5.

B1: PSAT1 (Homo sapiens) (protein)
chain: MDAPRQVVNFGPGPAKLPHSVLLEIQKELLDYKGVGISVLEMSHRSSDFAKIINNTENLVRELLAVPDNYKVIFLQGGGCGQFSAVPLNLIGLKAGRCADYVVTGAWSAKAAEEAKKFGTINIVHPKLGSYTKIPDPSTWNLNPDASYVYYCANETVHGVEFDFIPDVKGAVLVCDMSSNFLSKPVDVSKFGVIFAGAQKNVGSAGVTVVIVRDDLLGFALRECPSVLEYKVQAGNSSLYNTPPCFSIYVMGLVLEWIKNNGGAAAMEKLSSIKSQTIYEIIDNSQGFYVCPVEPQNRSKMNIPFRIGNAKGDDALEKRFLDKALELNMLSLKGHRSVGGIRASLYNAVTIEDVQKLAAFMKKFLEMHQL
For the protein B1, the Km was found to be 25.1 ± 5.3 μM μM.
